Assay results taken from patent WO2021032966A1.

Target: Ab42 oligomers (formed during the in vitro aggregation reaction of Ab42)
Experiment: time-course indirect ELISA on samples of the Ab42 aggregation reaction

Sequence of Ab42 oligomers (formed during the in vitro aggregation reaction of Ab42) (peptide, as listed by the source): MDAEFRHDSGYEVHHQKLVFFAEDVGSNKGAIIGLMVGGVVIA

fold of ELISA absorbance at 1 hour of incubation over the initial time of aggregation: 3 fold
B1: DesAb-O (VHH)
VHH: EVQLVESGGGLVQPGGSLRLSCAASGFNIKDTYIGWVRRAPGKGEEWVASIYPTNGYTRYADSVKGRFTISADTSKNTAYLQMNSLRAEDTAVYYCAAGSESAFGRAEEEAAAWGQGTLVTVSS
